The test system of data set [1] is MLL1 Bromo alone (1639–1784). The data set can be described thus: 1H,15N-HSQC titration of MLL1 Bromo alone with acetyllysine peptides. In kind it is binding. To be noted: five equivalents of H4(7-17)K12ac or H4(14-19)K16ac, H3K23ac and H3K27ac data not shown.
In data set [2] the test system is MLL1 PHD3-Bromo cassette (1566–1784). As to the kind of experiment: 1H,15N-HSQC titration of MLL1 PHD3-Bromo cassette with acetyllysine peptides. The conditions noted are these: five equivalents of H4(7-17)K12ac or H4(14-19)K16ac, H3K23ac and H3K27ac data not shown. In kind it is binding.
A further data set relates to HOXC8. As to the kind of experiment: Anti-HA ChIP of CyP33 binding at HOXC8. It counts as cell-based. The conditions noted are these: 293T cells, typical for at least three independent experiments.
In data set [3] the target is T1, MLL1 PHD3-Bromo cassette (Homo sapiens, UniProt Q03164, DEL1666-1702). As to the kind of experiment: Gel filtration complex formation with MLL1 PHD3-Bromo cassette. It counts as binding. To be noted: for binding of CyP33 mutants to PHD3-Bromo: in vitro, Figure 4, lines 7 and 11.
The subject of data set [4] is HOXA9 expression in 293T cells. The data set can be described thus: HOXA9 expression in transfected 293T cells. It counts as cell-based. To be noted: overexpression, real-time PCR, empty vector control.
A further data set deals with H3 acetylation at HOXA9. The data set can be described thus: ChIP with anti-H3 pan acetyl. It counts as cell-based. To be noted: 293T cells, overexpression, anti-H3 pan acetyl (AcH3), typical for at least three independent experiments.
For a further data set, the system named is HOXA9. The data set can be described thus: Anti-HA ChIP of CyP33 binding at HOXA9. In kind it is cell-based. The conditions noted are these: 293T cells, typical for at least three independent experiments.
The test system of data set [5] is HOXC8 expression in 293T cells. As to the kind of experiment: HOXC8 expression in transfected 293T cells. It counts as cell-based. To be noted: overexpression, real-time PCR, empty vector control. For orientation: Real-time PCR tracks product formation cycle by cycle.
The target in data set [6] is coexpressed MLL1 PHD3-Bromo cassette (residues 1566–1784, with deletion of 1666–1702 ZA loop segment) (human) (UniProt Q03164). As to the kind of experiment: ITC.
Data set [7] concerns the target complex of MLL1 PHD3-Bromo cassette and full-length CyP33 (UniProt Q03164). The data set can be described thus: ITC. (Isothermal titration calorimetry measures the heat released or taken up as one component is titrated into another.)
Data set [8] deals with T1, MLL1 PHD3-Bromo cassette. As to the kind of experiment: ITC binding of H3K4me peptides to coexpressed MLL1 PHD3-Bromo cassette. The conditions noted are these: vs H3K4me3 peptide without added Ala.
In data set [9] the test system is HOXC8 locus in K562 cells. To be noted: ref Fair et al., 2001; cited from earlier work.
A further data set relates to H3 acetylation at HOXC8. As to the kind of experiment: ChIP with anti-H3 pan acetyl. It counts as cell-based. The conditions noted are these: 293T cells, overexpression, anti-H3 pan acetyl (AcH3), typical for at least three independent experiments.
A further data set concerns the target T2, CyP33 RRM (2–82) (UniProt Q9UNP9 2-82).
T2 sequence (looked up): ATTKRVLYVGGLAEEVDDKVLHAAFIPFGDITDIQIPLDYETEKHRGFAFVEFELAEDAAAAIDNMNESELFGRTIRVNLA
As to the kind of experiment: NMR structure.

For data set [10], the target named is MLL1 PHD3-Bromo Q1587A mutant (human, UniProt Q03164 1566-1665; Q03164 1703-1784, Q1587A). As to the kind of experiment: ITC.
Data set [11] has as its target MLL1 PHD3-Bromo Y1581A mutant (human, UniProt Q03164 1566-1665; Q03164 1703-1784, Y1581A). The data set can be described thus: ITC.
The target of a further data set is T3, CyP33 RRM (1–82) (UniProt Q9UNP9 1-82).
T3 sequence (looked up): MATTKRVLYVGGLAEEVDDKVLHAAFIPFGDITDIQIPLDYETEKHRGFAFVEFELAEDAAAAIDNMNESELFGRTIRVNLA
The data set can be described thus: NMR titration.

The test system of a further data set is MLL2 PHD3. The data set can be described thus: Gel filtration complex formation with MLL2 PHD3. It counts as binding. For orientation: Size exclusion chromatography separates by hydrodynamic size, large species first.
For a further data set, the system named is MLL1 PHD3 domain alone. As to the kind of experiment: Gel filtration complex formation with MLL1 PHD3 alone. In kind it is binding.
The subject of data set [12] is MLL1 PHD3-Bromo mutant, where Pro1629 was replaced by Ala. The data set can be described thus: Complex formation with MLL1 PHD3-Bromo Pro1629 to Ala mutant. The conditions noted are these: in the absence of CyP33 PPIase domain. In kind it is binding.
A further data set relates to AU-rich RNAs. The conditions noted are these: ref Mi et al., 1996; Wang et al., 2008; cited from earlier work.
For the next data set, the system named is MLL1 PHD3 M1606D mutant. The data set can be described thus: Complex formation with MLL1 PHD3 M1606D. In kind it is binding. To be noted: Figure 4, line 10.
The test system of another data set is MLL1 (1566–1639). As to the kind of experiment: NMR monitoring of Pro1629 cis-to-trans transition. In kind it is binding. The conditions noted are these: 1H,13C-HSQC.
The test system of a further data set is MLL2 PHD3 D1375M mutant. The data set can be described thus: Complex formation with MLL2 PHD3 D1375M. In kind it is binding. To be noted: Figure 4, line 13.
The subject of the next data set is MLL1 PHD3. As to the kind of experiment: 1H,15N-HSQC Trp1594 indole resonance on sequential addition. In kind it is binding. The conditions noted are these: H3K4me3 first (binary complex), then CyP33 RRM (ternary complex).

“Also recorded” adds a separate entry of the source. No end group written: not given here.

The values that follow come from paper PMC4690531 (Cell, 2010).

Broadly, the Kd is the equilibrium constant for the complex coming apart. The low end stands for a tighter complex, the high end for a looser complex.

Consider “H4(14-19)K16ac: acetylated histone H4 peptide”, for which, in data set [1], the “complexation shifts, Bromo alone” value was “did not observe any complexation shifts”. Besides, the “complexation shifts, PHD3-Bromo cassette” value in data set [2] was “did not observe any complexation shifts”.

“F196E/M197E: CyP33 with F196E/M197E double mutation in the PPIase domain”: in the data set on HOXC8, the “CyP33 binding to HOXC8” value was “bound to HOXA9 and HOXC8”. Further, the “binding of CyP33 mutants to PHD3-Bromo” value with MLL1 PHD3-Bromo cassette [3] was “reduced the binding between CyP33 and PHD3-Bromo”. Also, in data set [4], the “HOXA9 repression” value is “did not cause any repression of either HOX gene; also recorded: not in cells expressing the F51D (green bars)or F196E/M197E”. The “H3 acetylation at HOXA9” value in the data set with H3 acetylation at HOXA9 is “not in cells expressing the F51D (green bars) and F196E/M197E”. The “CyP33 binding to HOXA9” value with HOXA9 was “bound to HOXA9 and HOXC8”. The “HOXC8 repression” value in data set [5] is “did not cause any repression of either HOX gene; also recorded: not in cells expressing the F51D (green bars)or F196E/M197E”.

On to “H3(1-15)K4me3 peptide (from UniProt P68431 2-16)”, for which the Kd in [6] stood at 4.3 µM; in data set [7], 11.6 µM.

With “H3(1-15)K4me2 peptide (from UniProt P68431 2-16)”, the figures for the Kd in data set [6] and in data set [7] were 6.9 µM and 15.2 µM, respectively.

On to “H4(7-17)K12ac: acetylated histone H4 peptide”, for which the “complexation shifts, Bromo alone” value in [1] is given as “did not observe any complexation shifts”. Besides, the “complexation shifts, PHD3-Bromo cassette” value in data set [2] is listed as “did not observe any complexation shifts”.

Molecule “H3K4me3 peptide with an Ala-Ala-Ala tripeptide added at the N terminus” had a Kd in data set [6] of 64 µM.

As for `C[C@H](N)C(=O)N[C@@H](C)C(=O)N[C@@H](C)C(=O)N[C@@H](C)C(=O)N[C@@H](CCCNC(=N)N)C(=O)N[C@H](C(=O)N[C@@H](CCCC[N+](C)(C)C)C(=O)N[C@@H](CCC(N)=O)C(=O)N[C@H](C(=O)N[C@@H](C)C(=O)N[C@@H](CCCNC(=N)N)C(=O)N[C@@H](CCCCN)C(=O)N[C@@H](CO)C(=O)N[C@H](C(=O)NCC(=O)NCC(=O)N[C@@H](CCCCN)C(=O)N[C@@H](C)C(=O)O)[C@@H](C)O)[C@@H](C)O)[C@@H](C)O` [Ala-Ala-Ala tri-peptide], the “increase of dissociation constant on N-terminal extension” value at MLL1 PHD3-Bromo cassette [8] stood at 15 fold.

As for `C[C@H](N)C(=O)N[C@@H](C)C(=O)N[C@@H](CCCNC(=N)N)C(=O)N[C@H](C(=O)N[C@@H](CCCC[N+](C)(C)C)C(=O)N[C@@H](CCC(N)=O)C(=O)N[C@H](C(=O)N[C@@H](C)C(=O)N[C@@H](CCCNC(=N)N)C(=O)N[C@@H](CCCCN)C(=O)N[C@@H](CO)C(=O)N[C@H](C(=O)NCC(=O)NCC(=O)N[C@@H](CCCCN)C(=O)N[C@@H](C)C(=O)O)[C@@H](C)O)[C@@H](C)O)[C@@H](C)O` [single Ala], the “increase of dissociation constant on N-terminal extension” value on MLL1 PHD3-Bromo cassette [8] is 6 fold.

On to “H3(1-15)K4me1 peptide (from UniProt P68431 2-16)”, for which, in [6], the Kd came out at 53 µM.

As to “H3K4me3 peptide with a single Ala added at the N terminus”, the Kd in data set [6] is 26 µM.

Consider “CyP33: cyclophilin with N-terminal RRM and C-terminal PPIase domain; FLAG-HA-tagged in 293T experiments”, for which the “CyP33 binding to HOXC8” value in the data set with HOXC8 is “bound to HOXA9 and HOXC8”. Further, in [4], the “HOXA9 repression” value is listed as “reduced”. For the same molecule, the “repression of HOXC8 locus” value in data set [9] was “repressor of the HOXC8 locus”. In addition, in the data set on HOXA9, the “CyP33 binding to HOXA9” value is “bound to HOXA9 and HOXC8”. The “HOXC8 repression” value in data set [5] was “reduced”.

For “F51D: CyP33 with F51D mutation in the RRM domain”, the “CyP33 binding to HOXC8” value in the data set on HOXC8 is “variably reduced CyP33 binding; also recorded: only partially disrupted in its ability to bind to HOXA9 and HOXC8”. The “binding of CyP33 mutants to PHD3-Bromo” value with MLL1 PHD3-Bromo cassette [3] is “sufficient to abolish the binding between CyP33 and MLL1 PHD3-Bromo”. In addition, the “H3 acetylation at HOXC8” value with H3 acetylation at HOXC8 is recorded as “unable to deacetylate”. In addition, the “HOXA9 repression” value in data set [4] is “did not cause any repression of either HOX gene; also recorded: not in cells expressing the F51D; also recorded: unable to deacetylate and repress target genes”. Further, the “H3 acetylation at HOXA9” value in the data set with H3 acetylation at HOXA9 is “not in cells expressing the F51D; also recorded: unable to deacetylate”. For the same molecule, in the data set with HOXA9, the “CyP33 binding to HOXA9” value is “variably reduced CyP33 binding; also recorded: only partially disrupted in its ability to bind to HOXA9 and HOXC8”. Moreover, the “HOXC8 repression” value in data set [5] was “did not cause any repression of either HOX gene; also recorded: not in cells expressing the F51D; also recorded: unable to deacetylate and repress target genes”.

As for MMQCGKCDRWVHSKCENLSDEMYEILSNLPESVAYTCVNCTERH (domain or fragment, human, UniProt Q03164 1585-1628, looked up) [interacting segment of MLL1 PHD3 (1585–1628)], the binding result with CyP33 RRM (2–82) was “binds”.

Take ARTK(Me3)QTARKSTGGKA (peptide, UniProt P68431 2-16, looked up) [H3(1-15)K4me3 peptide]: the binding result in [10] and in [11] was “binds” throughout.

B1: MLL1 (1566–1639) (domain or fragment, human, UniProt Q03164 1566-1639, looked up)
chain: GNFCPLCDKCYDDDDYESKMMQCGKCDRWVHSKCENLSDEMYEILSNLPESVAYTCVNCTERHPAEWRLALEKE
As for B1, in the data set with CyP33 RRM (1–82), the binding result is given as “binds”.

B2: CyP33 RRM: RRM domain (1–82) of CyP33 (protein)
chain: T3 sequence (looked up)
With B2, the “binding to MLL2 PHD3” value with MLL2 PHD3 was “does not bind CyP33 RRM”. The “complex formation with PHD3 alone” value in the data set with MLL1 PHD3 domain alone was “formed a complex with the PHD3 domain alone”. Besides, the “interaction with PHD3-Bromo P1629A” value in data set [12] is listed as “interacted with a PHD3-Bromo mutant”. Also, the RNA preference entry with AU-rich RNAs is “some preference for AU-rich RNAs”. Further, in the data set with MLL1 PHD3-Bromo cassette [3] (gel filtration), the “complex formation with PHD3-Bromo cassette” value was “not with the PHD3-Bromo cassette”. In the data set on MLL1 PHD3 M1606D mutant, the “complex formation with MLL1 PHD3 M1606D” value is “completely disrupted its complex formation with CyP33 RRM”. Further, in the data set with MLL1 (1566–1639), the “His1628-Pro1629 peptide bond configuration change” value was “transits from cis-to-trans configuration upon interaction with CyP33 RRM”. For the same molecule, the “Pro1629 Cγ chemical shift upon addition” value in the data set on MLL1 (1566–1639) (major cross peak 25.3 ppm (cis) in free state) came out at 27.5 ppm. Moreover, the “binding to MLL2 PHD3 D1375M” value with MLL2 PHD3 D1375M mutant is “converted MLL2 PHD3 to a CyP33 RRM binding partner”. Besides, the “Trp1594 indole resonance shift on sequential addition” value with MLL1 PHD3 was “upfield shift”.
